From US7442519B2, “KCNQ2-15 potassium channel” (priority 2002, dated 2008)

Key:
GSK-3β and PKA = assay: In vitro phosphorylation assay of GST-2E11 with recombinant GSK-3β kinase and PKA; assay type: biochemical; details: LiCl added to the kination mix; signal negatively correlated with LiCl concentration
Description: Expression and purification of the GST-2E11 fusion protein were performed as described above. Beads with bound fusion protein corresponding to 1 ml of bacterial clear lysate were washed three times in NETN and one time with HMK buffer without DTT (20 mM Tris-HCl [pH 7.5], 120 mM NaCl, 12 mM MgCl2). Beads were resuspended in 240 μl of reaction mix (24 μl of 10×HMK Buffer with 20 mM DTT, 40 units of Protein Kinase A Catalytic Subunit [PKA from bovine heart, 250 units/vial, Sigma] in 40 mM DTT, 5 μl of 24 mM ATP and 207 μl of distilled water) and incubated for 30 min at room temperature. Beads were then washed three times in NETN buffer and one time in GSK-3β reaction buffer (20 mM Tris-HCl [pH 7.5], 10 mM MgCl2, 5 mM DTT) (New England Biolabs). Beads were then resuspended in 50 μl of reaction mix (5 μl of 10×GSK-3β reaction buffer, 1 μl of [^32P]γATP 10 mCi/ml, 50 U of recombinant GSK-3β[New England Biolabs], and distilled water for a final volume of 50 μl) and incubated at room temperature for 30 min. After three washes in NETN buffer, phosphorylated proteins were boiled in 2×Sample Buffer (125 mM Tris-HCl [pH 6.8], 4% SDS, 20% glycerol, 1.4 M β-Mercapto ethanol), resolved by 10% SDS-PAGE, and visualized by autoradiography.
In this phosphorylation assay, non-radiolabeled polypeptides to be tested are incubated in the presence of GSK-3β, PKA and radioactive ATP. […]

Xenopus laevis oocytes = assay: Electrophysiological analysis (two-electrode voltage clamp) of homotetrameric potassium channels; assay type: cell-based; details: 0.4 ng of DNA injected
Description: The animal was anesthetized and pieces of the ovary were surgically removed and individual oocytes were dissected away in a saline solution (ND96) containing 96 mM NaCl, 2 mM KCl, 2 mM CaCl2, 2 mM MgCl2 and 5 mM HEPES at pH 7.4. Stage V and VI oocytes were treated at room temperanre for 2 h with collagenase type 1A (1 mg/ml) in the presence of 0.2 mg/ml trypsin inhibitor in saline solution to discard follicular cells. […] DNA corresponding to KCNQ2, 3H2 and 3H9 K+ channels were subcloned in PEKO vector in order to generate the respective cRNAS. cRNA concentrations were measured by absorbance at 260 nm. cRNA solutions were injected (about 50 nL/oocyte) using a pressure microinjector (Inject+matic, Geneve). Oocytes were then kept for 2-6 days in ND96 solution supplemented wirn 50 U/mL penicillin and 50 U/mL streptomycin.
In a 0.3 mL perfusion chamber, a single oocyte was impaled with two standard glass microelectrode (0.5-2 Mohm resistance) filled with 3M KCl and maintained under voltage clamp using a Dagan TEV200 amplifier system, USA. Electrical stimulations, data acquisition and analyses were performed using pClamp software (Axon Instruments, USA). […]

PP2A/Bγ = molecular target: T1, PP2A/Bγ (Homo sapiens, UniProt Q9Y2T4, E66D/G293D/R253P); assay: Solid phase overlay assay with radiolabeled GST-PPP2R2C probe; assay type: binding; details: 100 ng, 10 ng and 0.1 ng loaded; band intensity proportional to loaded quantity
T1 construct: The full-length coding region of the PPP2R2C gene, which encodes the PP2A/Bγ subunit; expressed in transfected cells; host or cells: Saccharomyces cerevisiae (AH109 / Y184 mating partners)
T1 sequence (Q9Y2T4 1-447 E66D/R253P/G293D): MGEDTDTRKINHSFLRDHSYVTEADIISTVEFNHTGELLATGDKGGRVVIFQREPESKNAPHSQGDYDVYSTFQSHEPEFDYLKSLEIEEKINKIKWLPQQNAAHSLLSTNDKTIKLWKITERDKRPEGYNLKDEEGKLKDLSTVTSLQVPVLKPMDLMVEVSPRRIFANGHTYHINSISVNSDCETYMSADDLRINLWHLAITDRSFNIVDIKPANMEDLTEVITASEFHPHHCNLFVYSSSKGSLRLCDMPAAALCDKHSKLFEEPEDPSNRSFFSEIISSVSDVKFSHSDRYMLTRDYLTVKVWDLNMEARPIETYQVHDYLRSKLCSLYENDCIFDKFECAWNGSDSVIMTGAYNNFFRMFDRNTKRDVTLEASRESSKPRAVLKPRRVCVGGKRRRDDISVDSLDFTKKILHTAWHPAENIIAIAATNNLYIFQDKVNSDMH
Description: Solid phase overlay assays were performed by adapting the method described by Kaelin and collaborators (Kaelin et al., 1992, Cell, 70:351-364). 100 ng, 10 ng and 0.1 ng of GST and GST-2E11 recombinant proteins were resolved by 9% SDS-PAGE and were transferred by electroblotting onto nitrocellulose membrane (nitrocellulose transfer membrane Protran BA 83, Schleicher and Schuell). The membrane were then blocked in HBB buffer (25 mM Hepes-KOH [pH 7.7], 25 mM NaCl, 5 mM MgCl2) with 5% (w/v) non-fat dry milk, 1 mM DTT, 0.05% Nonidet P-40 for 1 hr at room temperature. The binding reaction was carried out at room temperature in Hyb75 buffer (20 mM Hepes [pH 7.7], 75 mM KCl, 2.5 mM MgCl2, 0.1 mM EDTA, 0.05% Nonidet P-40) with 1% (w/v) non-fat dry milk, 1 mM DTT, 1 mM PMSF and 3.5 10^5dpm of a [^32P]-γATP GST-PPP2R2C radiolabeled recombinant protein used as a probe. After 4.5 hr of incubation, the membrane was washed with Hyb75 buffer, 1 mM DTT, 1% (w/v) non-fat dry milk three times for 15 min at room temperature. The blots were analyzed by autoradiography.
This experiment was performed to validate the interaction between KCNQ2-15b polypeptides and PP2A/Bγ. In this experiment, the PP2A/Bγ subunit was radiolabeled but not the proteins present on the nitrocellulose membrane. […] Furthermore, the intensity of the bands was proportional to the quantity of loaded GST-2E11. […]

Molecule: [Cl-].[Li+] [LiCl]
- intensity of the phosphorylated GST-2E11 band (GSK-3β and PKA): decreased

B1: KCNQ2-15bx: polypeptide of SEQ ID NO: 2, novel KCNQ2 splice variant (protein, listed as Homo sapiens)
chain: MVQKSRNGGVYPGPSGEKKLKVGFVGLDPGAPDSTRDGALLIAGSEAPKRGSILSKPRAGGAGAGKPPKRNAFYRKLQNFLYNVLERPRGWAFIYHAYVFLLVFSCLVLSVFSTIKEYEKSSEGALYILEIVTIVVFGVEYFVRIWAAGCCCRYRGWRGRLKFARKPFCVIDIMVLIASIAVLAAGSQGNVFATSALRSLRFLQILRMIRMDRRGGTWKLLGSVVYAHSKELVTAWYIGFLCLILASFLVYLAEKGENDHFDTYADALWWGLITLTTIGYGDKYPQTWNGRLLAATFTLIGVSFFALPAGILGSGFALKVQEQHRQKHFEKRRNPAAGLIQSAWRFYATNLSRTDLHSTWQYYERTVTVPMYSSQTQTYGASRLIPPLNQLELLRNLKSKSGLAFRKDPPPEPSPSKGSPCRGPLCGCCPGRSSQKVSLKDRVFSSPRGVAAKGKGSPQAQTVRRSPSADQSLEDSPSKVPKSWSFGDRSRARQAFRIKGAASRQNSEEASLPGEDIVDDKSCPCEFVTEDLTPGLKVSIRAVCVMRFLVSKRKFKESLRPYDVMDVIEQYSAGHLDMLSRIKSLQSRQEPRLPVQQGTRTGWASGTKPTVAHGGSAGGVWAGPPPHPRRPLSASVVSSQSLF
- intensity of the M-current generated by the homotetrameric potassium channel (Xenopus laevis oocytes): about 800 nA

B2: GST-2E11: fusion protein between a KCNQ2-15b polypeptide comprising exons 13, 14 and 15b and GST (protein)
chain: SSQKVSLKDRVFSSPRGVAAKGKGSPQAQTVRRSPSADQSLEDSPSKVPKSWSFGDRSRARQAFRIKGAASRQNSEEASLPGEDIVDDKSCPCEFVTEDLTPGLKVSIRAVCVMRFLVSKRKFKESLRPYDVMDVIEQYSAGHLDMLSRIKSLQSRQEPRLPVQQGTRTGWASGTKPTVAHGGSAGGVWAGPPPHPRRPLSASVVSSQSLF
modifications: left off: a dimerising Fc or GST
notes: fusion protein between a KCNQ2-15b polypeptide comprising exons 13, 14 and 15b and GST
- interaction with PP2A/Bγ (band by autoradiography) (PP2A/Bγ): interacts

B3: KCNQ2-15by: polypeptide of SEQ ID NO: 4, novel KCNQ2 splice variant (protein, listed as Homo sapiens)
chain: MVQKSRNGGVYPGPSGEKKLKVGFVGLDPGAPDSTRDGALLIAGSEAPKRGSILSKPRAGGAGAGKPPKRNAFYRKLQNFLYNVLERPRGWAFIYHAYVFLLVFSCLVLSVFSTIKEYEKSSEGALYILEIVTIVVFGVEYFVRIWAAGCCCRYRGWRGRLKFARKPFCVIDIMVLIASIAVLAAGSQGNVFATSALRSLRFLQILRMIRMDRRGGTWKLLGSVVYAHSKELVTAWYIGFLCLILASFLVYLAEKGENDHFDTYADALWWGLITLTTIGYGDKYPQTWNGRLLAATFTLIGVSFFALPAGILGSGFALKVQEQHRQKHFEKRRNPAAGLIQSAWRFYATNLSRTDLHSTWQYYERTVTVPMYSSQTQTYGASRLIPPLNQLELLRNLKSKSGLAFRKDPPPEPSPSQKVSLKDRVFSSPRGVAAKGKGSPQAQTVRRSPSADQSLEDSPSKVPKSWSFGDRSRARQAFRIKGAASRQNSEEASLPGEDIVDDKSCPCEFVTEDLTPGLKVSIRAVCVMRFLVSKRKFKESLRPYDVMDVIEQYSAGHLDMLSRIKSLQSRQEPRLPVQQGTRTGWASGTKPTVAHGGSAGGVWAGPPPHPRRPLSASVVSSQSLF
- intensity of the M-current generated by the homotetrameric potassium channel (Xenopus laevis oocytes): about 700 nA
